From the supplement of paper PMC9112550, “Optimization of the antimicrobial peptide Bac7 by deep mutational scanning” (BMC Biology, 2022)

tested on: Escherichia coli TOP10; experiment: shrunken log2 fold change of peptide-encoding DNA abundance (4.5 h post-induction vs induction); higher = less antimicrobial activity (less host growth inhibition); conditions: time post-induction: 4.5 h; library: site-saturation at positions 5, 18, 19, 20
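Also: peptides expressed intracellularly from a pBAD plasmid library in pooled LB shake-flask culture, induced with 0.3% L-arabinose, DNA abundance read by NGS, three biological replicates, DESeq2 with apeglm shrinkage.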

Row | Sequence | shrunken log2 fold change
1 | RRIRVRPPRLPRPRPRPSDIPRP | -0.965
2 | RRIRRRPPRLPRPRPRPFADPRP | -0.0461
3 | RRIRDRPPRLPRPRPRPRSVPRP | 0.165
4 | RRIRNRPPRLPRPRPRPDQVPRP | -0.148
5 | RRIRGRPPRLPRPRPRPWIEPRP | -0.0591
6 | RRIRMRPPRLPRPRPRPAPTPRP | 1.13
7 | RRIRYRPPRLPRPRPRPPYFPRP | -0.262
8 | RRIRDRPPRLPRPRPRPPNMPRP | 0.0281
9 | RRIRHRPPRLPRPRPRPSNTPRP | -0.278
10 | RRIRCRPPRLPRPRPRPMPVPRP | 0.161
11 | RRIRVRPPRLPRPRPRPEVSPRP | 0.0554
12 | RRIRIRPPRLPRPRPRPWSTPRP | -0.358
13 | RRIRMRPPRLPRPRPRPFIMPRP | -0.158
14 | RRIRKRPPRLPRPRPRPIMLPRP | 0.0564
15 | RRIRQRPPRLPRPRPRPFLTPRP | -0.156
16 | RRIRARPPRLPRPRPRPPLMPRP | 0.408
17 | RRIRLRPPRLPRPRPRPRAHPRP | 0.244
18 | RRIRLRPPRLPRPRPRPTGVPRP | -0.0506
19 | RRIRGRPPRLPRPRPRPHKNPRP | 0.535
20 | RRIRMRPPRLPRPRPRPSTQPRP | 0.148
21 | RRIRPRPPRLPRPRPRPTRAPRP | 0.707
22 | RRIRQRPPRLPRPRPRPISRPRP | -0.0404
23 | RRIRGRPPRLPRPRPRPQYKPRP | -0.136
24 | RRIRDRPPRLPRPRPRPKEMPRP | -0.00146
25 | RRIRPRPPRLPRPRPRPENHPRP | -0.0822

Row | Sequence | shrunken log2 fold change
26 | RRIRARPPRLPRPRPRPIWSPRP | 1.14
27 | RRIRPRPPRLPRPRPRPRYDPRP | 0.0231
28 | RRIRKRPPRLPRPRPRPETCPRP | 0.0906
29 | RRIRERPPRLPRPRPRPGPYPRP | -0.208
30 | RRIRKRPPRLPRPRPRPGDLPRP | 0.273
31 | RRIRQRPPRLPRPRPRPADLPRP | -0.0217
32 | RRIRMRPPRLPRPRPRPGQTPRP | -0.00931
33 | RRIRNRPPRLPRPRPRPTQSPRP | 0.291
34 | RRIRWRPPRLPRPRPRPSTYPRP | -0.0575
35 | RRIRIRPPRLPRPRPRPNCLPRP | -0.602
36 | RRIRDRPPRLPRPRPRPANCPRP | -0.00155
37 | RRIRYRPPRLPRPRPRPMKSPRP | -0.416
38 | RRIRRRPPRLPRPRPRPTERPRP | 0.409
39 | RRIRPRPPRLPRPRPRPWKKPRP | -0.0306
40 | RRIRGRPPRLPRPRPRPTHGPRP | 0.487
41 | RRIRVRPPRLPRPRPRPSGIPRP | -0.931
42 | RRIRNRPPRLPRPRPRPEQSPRP | 0.338
43 | RRIRMRPPRLPRPRPRPKTKPRP | 0.557
44 | RRIRQRPPRLPRPRPRPMDYPRP | -0.0062
45 | RRIRHRPPRLPRPRPRPHIWPRP | -0.835
46 | RRIRVRPPRLPRPRPRPYFPPRP | 0.109
47 | RRIRRRPPRLPRPRPRPDLRPRP | 0.398
48 | RRIRERPPRLPRPRPRPKSVPRP | -0.00947
49 | RRIRQRPPRLPRPRPRPSATPRP | 0.0854
50 | RRIRKRPPRLPRPRPRPRAYPRP | -0.382

Row | Sequence | shrunken log2 fold change
51 | RRIRMRPPRLPRPRPRPKRSPRP | 2.25
52 | RRIRMRPPRLPRPRPRPCSEPRP | 0.514
53 | RRIRIRPPRLPRPRPRPMTEPRP | 0.0149
54 | RRIRSRPPRLPRPRPRPAMLPRP | 0.0679
55 | RRIRQRPPRLPRPRPRPTGPPRP | 0.22
56 | RRIRLRPPRLPRPRPRPQLIPRP | -0.0529
57 | RRIRQRPPRLPRPRPRPMGSPRP | -0.0869
58 | RRIRERPPRLPRPRPRPGEEPRP | 0.175
59 | RRIRMRPPRLPRPRPRPLCLPRP | -0.0538
60 | RRIRCRPPRLPRPRPRPLLIPRP | -0.4
61 | RRIRLRPPRLPRPRPRPTADPRP | 0.346
62 | RRIRERPPRLPRPRPRPVHIPRP | -0.202
63 | RRIRMRPPRLPRPRPRPKDRPRP | 1.87
64 | RRIRYRPPRLPRPRPRPRQCPRP | -0.0146
65 | RRIRPRPPRLPRPRPRPTSPPRP | -0.0252
66 | RRIRERPPRLPRPRPRPAWYPRP | -0.179
67 | RRIRLRPPRLPRPRPRPCIHPRP | -0.392
68 | RRIRQRPPRLPRPRPRPHPTPRP | -0.13
69 | RRIRARPPRLPRPRPRPACWPRP | 0.849
70 | RRIRTRPPRLPRPRPRPMLSPRP | -0.41
71 | RRIRVRPPRLPRPRPRPMMPPRP | -0.302
72 | RRIRQRPPRLPRPRPRPRAVPRP | 2.78
73 | RRIRSRPPRLPRPRPRPYGVPRP | 0.0325
74 | RRIRKRPPRLPRPRPRPANIPRP | 0.214
75 | RRIRERPPRLPRPRPRPWGTPRP | -0.121
